Results as given in patent US20140010886A1, “COMPOSITIONS COMPRISING SACCHARIDE BINDING MOIETIES AND METHODS FOR TARGETED THERAPY” (GEORGIA TECH RESEARCH CORPORATION, priority 2011, published 2014).

Legend:
[1] = tested on: CD133+ GBM-CSCs; assay: Lectin panel labeling of CD133+ GBM-CSCs during differentiation (flow cytometry); type: binding, human; settings: for recognition of GBM-CSCs by lectin after differentiation: after 12 days of differentiation; for recognition of undifferentiated GBM-CSCs by lectin: day 1, undifferentiated CD133+ GBM-CSCs
Protocol: The fact that lectin moieties recognize carbohydrates located on the surface of cells makes them a great tool to identify changes in glycosylation patterning during differentiation. We used a panel of 20 lectins to study the patterning of CD133^+ GBM-CSCs surface glycosylation during differentiation (Table 1). Neurospheres derived from CD133^+ GBM-CSCs were grown as mentioned above and were plated onto polyornithin and laminin coated tissue culture grade plastics. Within 10 hours the neuroshperes adhered and neurite formations were observed. Differentiation continued for 12 days, and harvested cells (day 1 and day 12) were labeled with our panel of lectins (FIG. 2A). […] Furthermore, the recognition and decrease in recognition of GalNAc and GlcNAc coincide with the expression of GBM-CSC marker CD133-glycosylation (CD133-G) and general stem cell markers OCT 4 and SOX2 (FIG. 3C). OCT 4 and SOX2 have been well studied in GBMs and are accepted indicators of sternness in GBM cell lines.

[2] = tested on: DBA positive sorted cells (CTB-1 GBM-CSCs); assay: Lectin reactivity of DBA positive sorted GBM-CSCs (flow cytometry); type: binding, human; settings: for lectin reactivity of DBA positive sorted cells: day 1; for lectin reactivity of DBA positive sorted cells by day 12: day 12 of differentiation
From the text: The percent of cells with specific carbohydrate expression as determined by flow cytometry using 8 different lectins. The data are means+/−SD of 3 independent assays of CTB-1 GBM-CSCs. CTB-1 cell line was stained with CD133, OCT4, and SOX2 antibody in addition to lectin staining Statistical significance (p≦0.05) is indicated by asterisk.
DBA lectin positive cells made up less than 1% of the total population and phenotypically appeared to proliferate at a much slower rate than the DBA negative population. […] Increased proliferation in DBA negative populations can be visualized via microscopy at day 1 and day 12 (FIG. 7). At day 12 the DBA negative population appears to be denser than the DBA positive population (FIG. 7), however, both populations are able to produce GFAP positive cells (Astrocytes) identical to the CD133 positive sorted cells (FIG. 7). […] DBA negative sorted cells contradict the aforementioned, and show low reaction towards GalNAc and GlcNAc recognizing lectins and this continues to decrease by day 12 (FIG. 8B). Con A remains high throughout in both populations and serves as a positive control (FIGS. 8A and 8B). However, GBM-CSC marker CD133-G and general stem cell markers OCT 4 and SOX 2 are high in the DBA positive sorted cells, and similar to DBA reactivity, decreases substantially by day 12 of differentiation (FIG. 8A). However, in the DBA negative population these stem cell markers uniformly are low at day one and are almost non-existent by day 12 (FIG. 8A). Until now CD133 has been considered the only marker for CSCs derived from GBM brain tumors. However, using cell sorting technology, DBA lectin, which recognizes GalNAc, we were able to separate CD133^+ cells from CD133− cells.

## SBA: lectin soybean agglutinin, recognizes the glycan moiety GalNAc
[1]
  recognition of GBM-CSCs by lectin after differentiation: markedly decreased
  recognition of undifferentiated GBM-CSCs by lectin: highly recognized
[2]
  lectin reactivity of DBA positive sorted cells: high reactivity
  lectin reactivity of DBA positive sorted cells by day 12: decrease

B1: ECL: erythrina cristagalli lectin, recognizes the glycan moiety GlcNAc (protein, listed as Homo sapiens)
chain: VETISFSFSEFEPGNNDLTLQGAAIITQSGVLQLTKINQNGMPAWDSTGRTLYTKPVHIWDMTTGTVASFETRFSFSIEQPYTRPLPADGLVFFMGPTKSKPAQGYGYLGVFNNSKQDNSYQTLAVEFDTFSNPWDPPQVPHIGIDVNSIRSIKTQPFQLDNGQVANVVIKYDASSKILLAVLVYPSSGAIYTIAEIVDVKQVLPEWVDVGLSGATGAQRDAAETHDVYSWSFHASLPETND
[1]
  recognition of GBM-CSCs by lectin after differentiation: noticeably decreased
  recognition of undifferentiated GBM-CSCs by lectin: highly recognized
[2]
  lectin reactivity of DBA positive sorted cells: highly reactive
  lectin reactivity of DBA positive sorted cells by day 12: decreased

B2: PNA: lectin peanut agglutinin, recognizes the glycan moiety GalNAc (protein, UniProt P02872 24-273, looked up)
Galactose-binding lectin: AETVSFNFNSFSEGNPAINFQGDVTVLSNGNIQLTNLNKVNSVGRVLYAMPVRIWSSATGNVASFLTSFSFEMKDIKDYDPADGIIFFIAPEDTQIPAGSIGGGTLGVSDTKGAGHFVGVEFDTYSNSEYNDPPTDHVGIDVNSVDSVKTVPWNSVSGAVVKVTVIYDSSTKTLSVAVTNDNGDITTIAQVVDLKAKLPERVKFGFSASGSLGGRQIHLIRSWSFTSTLITTTRRSIDNNEKKIMNMASA
[1]
  recognition of GBM-CSCs by lectin after differentiation: markedly decreased
  recognition of undifferentiated GBM-CSCs by lectin: highly recognized
[2]
  lectin reactivity of DBA positive sorted cells: high reactivity
  lectin reactivity of DBA positive sorted cells by day 12: decrease
